Experimental data reported in US20050272107A1 (MEDICAL RESEARCH COUNCIL, published 2005).

Key:
[1] = target: RAS antigen of the BIAcore measurements; assay: SPR, BIAcore 2000
[2] = target: RAS antigen of the BIAcore measurements; assay: SPR, BIAcore 2000; Kd = koff/kon

B1: anti-RAS scFv33 (scFv)
chain: QVQLVEAGGGLVQPGGSLRLSCAASGFSFSTFSMNWVRQAPGKGLEWVSYISSSGRTIYYADSVKGRFTISRDNAKNSLYLQMNSLRDEDTAVYYCARGRFFDYWGQGTLVTVSSGGGGSGGGGSGGGGSDIVMTQSPSFLSASVGDRVTITCRASQSISRYLNWYQQKPGKAPKLLIYAASSLQSGVPSRFSGSGSGTDFTLTISSLQPEDFAIYYCQQSYSTLLTFGGGTKLEIKR
[1]
  koff: 0.00113 s⁻¹
  kon: 176000 M⁻¹ s⁻¹
[2]
  Kd: 9.97 nM
